Series [1] concerns cordycepin (3′deoxy adenosine triphosphate). As to conditions: Vent polymerase variant; cited from earlier work.
The subject of series [2] is 3′ modified nucleotide. As to the kind of experiment: Gel-based incorporation assay of Example 2, two cycles of enzymology on bead-bound 32P-labelled DNA template. The series is classed as biochemical. The conditions noted are these: for Time to 50% product conversion on first cycle of incorporation / Time (mins) to 50% product conversion on second cycle of enzymology: 45° C., 50 mM Tris, pH 8, 4 mM MgSO4, 0.05 (v/v) Tween, 50 μg/ml enzyme, 2 μM 3′ modified nucleotide; for Time to 50% product conversion on first cycle of incorporation: first cycle (in parentheses); for incorporation of 3′ modified nucleotide analogues compared to 9° N DM (Y409V/A485L): region A variants, conditions of Example 2. The method, then: The mutant polymerases were assessed for their ability to incorporate a 3′ blocked nucleotide analogue using a gel-based assay as described in generic form in Example 1. The rates of incorporation of the modified nucleotides were compared to purified forms of related DNA polymerases in both a single round of incorporation and through two rounds of nucleotide incorporation. The DNA template that was used for these experiments was a commercially-synthesised biotinylated oligonucleotide.
The method for two cycles of incorporation involves the binding of the DNA primer-template to streptavidin-coated beads (Dynalbeads). These are prepared as follows: • Resuspend beads in storage pot by pipetting up and down Take 20 μL beads • Wash 3×200 μL TE buffer (10 mM Tris HCl pH 7.5, 1 mM EDTA) Add 50 μL B&W buffer (5 mM Tris HCl, pH 7.5; 1M NaCl, […]) • 25 μL H2O • 25 μL of ^32P-labelled biotin DNA template (final concentration of 100 nM)
The first cycle of enzymatic incorporation is performed on these beads as follows:
Incorporation mix 1 is added to the bead pellet from above.
Reactions are incubated at 45° C. for 15 minutes
The first cycle of enzymology is then deblocked by treatment with tri(carboxyethyl) phosphine (TCEP) as follows:
Add 65 μL TCEP (100 mM) in water and incubate at 65° C. for 15 minutes
After removal of the TE buffer, a second cycle of enzymatic incorporation is then performed by the addition of incorporation mix 2, as follows:
Take 5 μL samples out at ½, 1, 2, 4, 10, 30, 60 mins and add to gel loading buffer with EDTA.
Heat all samples to 95° C. for 10 mins and load 3 μl on a 12% acrylamide gel (Sambrook and Russell, 2001).
Time (mins) to 50% product conversion on second cycle of enzymology at 45° C., 50 mM Tris, pH 8, 4 mM MgSO4, 0.05 (v/v) Tween, 50 μg/ml enzyme, and 2 μM 3′ modified nucleotide. Time to 50% product conversion on first cycle of incorporation shown in parentheses. For other mutants the time to 50% conversion on the first cycle was not measured in these experiments

The test system of series [3] is 3′ modified nucleotide. As to the kind of experiment: Single incorporation method (single cycle of nucleotide incorporation, gel read-out). The series is classed as biochemical. The conditions noted are these: 45° C.; for incorporation of uracil nucleotide analogues with different 3′ modifications: 3′ O-allyl, 3′ S-methyl and 3′ O-azido methyl, single cycle, FIG. 3. The method, then:
In order to determine whether the modified polymerases described in the previous examples have the capability to incorporate different nucleotide analogues that bear large modifications at the 3′ position of the sugar, three different uracil nucleotide analogues (3′ O-allyl, 3′ S-methyl, and 3′ O-azido methyl) were tested for their ability to be incorporated by two different […] (9° N ED variant polymerase, and 9° N YAV variant polymerase), compared to a control polymerase (9° N DM). A single cycle of nucleotide incorporation was performed at different time intervals using a ‘single incorporation’ method described below.
1. In a clean reaction tube, mix the following components: • 100 nM ^32P-labelled duplex DNA substrate • 50 μg/ml isolated DNA polymerase • 50 mM TrisHCl, pH 8 • 0.05% Tween20 • water to 47 μL
2. incubate the mixture at 45° C.
3. Add 4 mM MgSO4 and 2 μM 3′ modified nucleotide to the reaction mixture from 2, such that the total reaction volume is 50 μL
4. at various time intervals remove 5 μL aliquots from the reaction tube and mix with 5 μL gel loading buffer (described in Example 2)
5. Heat samples and load on acrylamide gels as described in Example 2.
To determine if the DNA polymerases described in previous examples were capable of incorporating 3′ modified nucleotide derivatives of A, G, C and T bases, and also of incorporating such nucleotide derivatives further modified by different fluorescent reporter groups, a single incorporation reaction (as described in Example 3) was performed with the following 3′ O-azido methyl nucleotide derivatives: […]

The subject of series [4] is 3′ modified nucleotide analogues. As to the kind of experiment: Example 1 library screen (ffT-DIG filter assay) and primer extension assay against 9DM control. The conditions noted are these: variants mutated at regions A and B. The series is classed as biochemical. As to the method: Mutations were introduced simultaneously at two regions of the 9° N DNA polymerase sequence, residues 408-410, and residues 484-486. A library of polymerase variants was screened for the incorporation of the 3′ modified nucleotide analogues.
The variant polymerases have increased activity towards the modified nucleotides utilised in the experiments. Thus, they appear to incorporate nucleotide analogues which have been modified at the 3′ sugar hydroxyl such that the substituent is larger in size than the naturally occurring 3′ hydroxyl group in primer extension assays faster than previously available polymerases which can act as a control polymerase, such as the 9° N (-exo) Y409V/A485L double mutant (designated 9DM herein).
There are many different methods for screening for nucleotide incorporation that are variations on the method of Sagner et al. (1991). One suitable method is described herein for the incorporation of 3′ modified nucleotide analogues that uses a digoxigenin-3-O-methyl-carbonyl-e-aminocaproic acid (DIG) derivative of the relevant nucleotide analogue (ffT-DIG)
Remove tape and 3 MM paper and place filter back in petri dish. Add incorporation solution pre-warmed to temperature that incorporation will be tested at. […]
This is a generalised method. […] Also, have ready eppendorf containing 1 μl CHASE mix for each reaction. […]

Positions count from the first letter of the chain named. In names and notes the source's numbering stands.

Data on four molecules can be found in patent US8460910B2 (Illumina Cambridge Limited, priority 2003, dated 2013).

Take “Y412V: Vent DNA polymerase with mutation Y412V (Gardner and Jack 1999)”: in series [1], the “rate enhancement with cordycepin” value is 2 fold.

B1: YAV: 9° N polymerase (exo-) mutant, motif A region YAV, also A485L; SEQ ID NO: 22 (protein)
chain: MILDTDYITENGKPVIRVFKKENGEFKIEYDRTFEPYFYALLKDDSAIEDVKKVTAKRHGTVVKVKRAEKVQKKFLGRPIEVWKLYFNHPQDVPAIRDRIRAHPAVVDIYEYDIPFAKRYLIDKGLIPMEGDEELTMLAFAIATLYHEGEEFGTGPILMISYADGSEARVITWKKIDLPYVDVVSTEKEMIKRFLRVVREKDPDVLITYNGDNFDFAYLKKRCEELGIKFTLGRDGSEPKIQRMGDRFAVEVKGRIHFDLYPVIRRTINLPTYTLEAVYEAVFGKPKEKVYAEEIAQAWESGEGLERVARYSMEDAKVTYELGREFFPMEAQLSRLIGQSLWDVSRSSTGNLVEWFLLRKAYKRNELAPNKPDERELARRRGGYAGGYVKEPERGLWDNIVYLDFRSYAVSIIITHNVSPDTLNREGCKEYDVAPEVGHKFCKDFPGFIPSLLGDLLEERQKIKRKMKATVDPLEKKLLDYRQRLIKILANSFYGYYGYAKARWYCKECAESVTAWGREYIEMVIRELEEKFGFKVLYADTDGLHATIPGADAETVKKKAKEFLKYINPKLPGLLELEYEGFYVRGFFVTKKKYAVIDEEGKITTRGLEIVRRDWSEIAKETQARVLEAILKHGDVEEAVRIVKEVTEKLSKYEVPPEKLVIHEQITRDLRDYKATGPHVAVAKRLAARGVKIRPGTVISYIVLKGSGRIGDRAIPADEFDPTKHRYDAEYYIENQVLPAVERILKAFGYRKEDLRYQKTKQVGLGAWLKVKGKK
modifications: 9oN polymerase variant (exo-) with L408Y/Y409A/P410V mutations
Take B1: in the series on 3′ modified nucleotide [2], the “Time to 50% product conversion on first cycle of incorporation” value is listed as “min (5 sec)”, the “Time (mins) to 50% product conversion on second cycle of enzymology” value stood at 1.2 min and the “incorporation of 3′ modified nucleotide analogues compared to 9° N DM (Y409V/A485L)” value is listed as “best incorporation rate”. Besides, in the series with 3′ modified nucleotide [3] (2 μM nucleotide), the “incorporation of uracil nucleotide analogues with different 3′ modifications” value was “incorporated efficiently”. In the series with 3′ modified nucleotide [3] (first cycle, single cycle experiment), the “concentration of 3′ blocked nucleotide at which incorporation can be measured (as low as)” value is listed as 50 nM.

B2: 2E: L408V/Y409A/P410L R484I/A485S/I486N 9° N mutant; SEQ ID NO: 12 (protein)
chain: B1 chain with Y408V, V410L, R484I, L485S, I486N
modifications: 9oN polymerase variant (exo-) with L408V/Y409A/P410L R484I/A485S/I486N mutations
With B2, in series [4], the “incorporation of 3′ modified nucleotide analogues compared to control polymerase (9DM)” value is reported as “improved incorporation”.

B3: VAL (ED polymerase): 9° N DM derivative with L408V; V409A; P410L (motif A VAL) plus A485L; SEQ ID NO: 18 (protein)
chain: B1 chain with Y408V, V410L
modifications: 9oN polymerase variant (exo-) with L408V/Y409A/P410L and A485L mutations
Consider B3, for which, in the series on 3′ modified nucleotide [2], the “rate of incorporation of the modified nucleotides compared to the original mutant bearing changes at regions A and B (2E)” value is given as “enhanced rate of incorporation”; the “Time to 50% product conversion on first cycle of incorporation” value is reported as “min (16 sec)”; the “Time (mins) to 50% product conversion on second cycle of enzymology” value is 5.2 min; the “incorporation of 3′ modified nucleotide analogues compared to 9° N DM (Y409V/A485L)” value was “improved incorporation”. Moreover, in the series with 3′ modified nucleotide [3] (2 μM nucleotide), the “incorporation of uracil nucleotide analogues with different 3′ modifications” value is recorded as “incorporated efficiently”. The substrate conversion result with 3′ modified nucleotide [3] (each 3′ O-azido methyl nucleotide derivative of Table IV (A, G, C, T; different dyes), 2 μM nucleotide, within 3 minutes) is “greater than 90%”.
